From patent US20030207290A1
Values belong to the binder of their own block, whether it stands above or below them. Where no end group is shown, it is not given here.

Experiments:
BSA (control coating) = BSA (control coating) (UniProt P02769); assay: ECL plate binding assay: BSA control on electrode, biotinylated TnT protein, Sulfo-TAG streptavidin
[1] = target: Pool D of peptide:BSA conjugates (EGFR-pTyr992, EGFR-pTyr1068, Myc-p58Tp62S); assay: ECL 4-spot binding assay with pooled peptide-BSA conjugates, biotinylated TnT protein, Sulfo-TAG streptavidin
[2] = target: Pool C of peptide:BSA conjugates (EGFR-pTyr1068, IkBa-24ppC, Smad3C); assay: as above
[3] = target: Pool B of peptide:BSA conjugates (EGFR-pTyr992, EGFR-pTyr1148, Smad3C); assay: as above
[4] = target: Pool A of peptide:BSA conjugates (EGFR-pTyr1148, IkBa-24ppC, Myc-p58Tp62S); assay: as above
[5] = target: T1, EGFR-pY1068 phosphopeptide, LPVPE(p)…; assay: ECL 7-spot plate screen, peptide-BSA spot, biotinylated TnT protein, Ru-streptavidin; signal normalized in two steps
T1 sequence (peptide, phosphotyrosine at (p)Y (residue 6 of the printed peptide; EGFR Tyr1068)): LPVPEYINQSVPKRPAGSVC

[6] = target: Grb2 (EST clone IMAGE 4398016), in vitro translated, biotin-labelled (UniProt P62993); assay: competition: immobilized Grb2, +EGFR, un-phosphorylated peptide in solution; bound EGFR detected by its kinase activity on pEY

Chain of BSA (control coating) (P02769 25-607 limits assumed): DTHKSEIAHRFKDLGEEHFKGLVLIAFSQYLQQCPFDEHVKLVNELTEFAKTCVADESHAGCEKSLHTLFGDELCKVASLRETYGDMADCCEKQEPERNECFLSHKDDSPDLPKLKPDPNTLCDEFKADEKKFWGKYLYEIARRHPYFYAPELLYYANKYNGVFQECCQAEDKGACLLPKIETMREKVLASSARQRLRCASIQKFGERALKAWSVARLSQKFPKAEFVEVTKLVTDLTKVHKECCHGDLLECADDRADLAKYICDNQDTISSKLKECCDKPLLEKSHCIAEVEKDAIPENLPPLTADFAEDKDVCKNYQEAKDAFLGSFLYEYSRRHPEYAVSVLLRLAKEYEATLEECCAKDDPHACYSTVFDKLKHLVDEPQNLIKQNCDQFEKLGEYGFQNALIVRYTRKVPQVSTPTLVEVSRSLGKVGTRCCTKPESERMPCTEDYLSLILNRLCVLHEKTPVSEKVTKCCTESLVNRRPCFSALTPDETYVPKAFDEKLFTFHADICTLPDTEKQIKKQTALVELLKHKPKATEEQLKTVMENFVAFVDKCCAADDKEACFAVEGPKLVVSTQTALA

B2: BMX non-receptor tyrosine kinase (EST clone IMAGE 3919253), in vitro translated, biotin-labelled (enzyme, UniProt P51813 1-675, looked up)
chain: MDTKSILEELLLKRSQQKKKMSPNNYKERLFVLTKTNLSYYEYDKMKRGSRKGSIEIKKIRCVEKVNLEEQTPVERQYPFQIVYKDGLLYVYASNEESRSQWLKALQKEIRGNPHLLVKYHSGFFVDGKFLCCQQSCKAAPGCTLWEAYANLHTAVNEEKHRVPTFPDRVLKIPRAVPVLKMDAPSSSTTLAQYDNESKKNYGSQPPSSSTSLAQYDSNSKKIYGSQPNFNMQYIPREDFPDWWQVRKLKSSSSSEDVASSNQKERNVNHTTSKISWEFPESSSSEEEENLDDYDWFAGNISRSQSEQLLRQKGKEGAFMVRNSSQVGMYTVSLFSKAVNDKKGTVKHYHVHTNAENKLYLAENYCFDSIPKLIHYHQHNSAGMITRLRHPVSTKANKVPDSVSLGNGIWELKREEITLLKELGSGQFGVVQLGKWKGQYDVAVKMIKEGSMSEDEFFQEAQTMMKLSHPKLVKFYGVCSKEYPIYIVTEYISNGCLLNYLRSHGKGLEPSQLLEMCYDVCEGMAFLESHQFIHRDLAARNCLVDRDLCVKVSDFGMTRYVLDDQYVSSVGTKFPVKWSAPEVFHYFKYSSKSDVWAFGILMWEVFSLGKQPYDLYDNSQVVLKVSQGHRLYRPHLASDTIYQIMYSCWHELPEKRPTFQQLLSSIEPLREKDKH
modifications: biotin on some lysine residues (incorporated at random from biotin-Lys-tRNA)
normalized ECL signal [5]: 3

B3: Phospholipase C gamma 1 (PLCγ) (EST clone IMAGE 4419252), in vitro translated, biotin-labelled (enzyme, UniProt P19174 1-1290, looked up)
chain: MAGAASPCANGCGPGAPSDAEVLHLCRSLEVGTVMTLFYSKKSQRPERKTFQVKLETRQITWSRGADKIEGAIDIREIKEIRPGKTSRDFDRYQEDPAFRPDQSHCFVILYGMEFRLKTLSLQATSEDEVNMWIKGLTWLMEDTLQAPTPLQIERWLRKQFYSVDRNREDRISAKDLKNMLSQVNYRVPNMRFLRERLTDLEQRSGDITYGQFAQLYRSLMYSAQKTMDLPFLEASTLRAGERPELCRVSLPEFQQFLLDYQGELWAVDRLQVQEFMLSFLRDPLREIEEPYFFLDEFVTFLFSKENSVWNSQLDAVCPDTMNNPLSHYWISSSHNTYLTGDQFSSESSLEAYARCLRMGCRCIELDCWDGPDGMPVIYHGHTLTTKIKFSDVLHTIKEHAFVASEYPVILSIEDHCSIAQQRNMAQYFKKVLGDTLLTKPVEISADGLPSPNQLKRKILIKHKKLAEGSAYEEVPTSMMYSENDISNSIKNGILYLEDPVNHEWYPHYFVLTSSKIYYSEETSSDQGNEDEEEPKEVSSSTELHSNEKWFHGKLGAGRDGRHIAERLLTEYCIETGAPDGSFLVRESETFVGDYTLSFWRNGKVQHCRIHSRQDAGTPKFFLTDNLVFDSLYDLITHYQQVPLRCNEFEMRLSEPVPQTNAHESKEWYHASLTRAQAEHMLMRVPRDGAFLVRKRNEPNSYAISFRAEGKIKHCRVQQEGQTVMLGNSEFDSLVDLISYYEKHPLYRKMKLRYPINEEALEKIGTAEPDYGALYEGRNPGFYVEANPMPTFKCAVKALFDYKAQREDELTFIKSAIIQNVEKQEGGWWRGDYGGKKQLWFPSNYVEEMVNPVALEPEREHLDENSPLGDLLRGVLDVPACQIAIRPEGKNNRLFVFSISMASVAHWSLDVAADSQEELQDWVKKIREVAQTADARLTEGKIMERRKKIALELSELVVYCRPVPFDEEKIGTERACYRDMSSFPETKAEKYVNKAKGKKFLQYNRLQLSRIYPKGQRLDSSNYDPLPMWICGSQLVALNFQTPDKPMQMNQALFMTGRHCGYVLQPSTMRDEAFDPFDKSSLRGLEPCAISIEVLGARHLPKNGRGIVCPFVEIEVAGAEYDSTKQKTEFVVDNGLNPVWPAKPFHFQISNPEFAFLRFVVYEEDMFSDQNFLAQATFPVKGLKTGYRAVPLKNNYSEDLELASLLIKIDIFPAKENGDLSPFSGTSLRERGSDASGQLFHGRAREGSFESRYQQPFEDFRISQEHLADHFDSRERRAPRRTRVNGDNRL
modifications: biotin on some lysine residues (incorporated at random from biotin-Lys-tRNA)
Average ECL signal (BSA (control coating)): 342 ECL signal | ECL signal [1]: 3390 ECL signal | ECL signal [2]: 1550 ECL signal | ECL signal [3]: 2780 ECL signal | ECL signal [4]: 239 ECL signal

Other lines, results leading:

Average ECL signal (BSA (control coating)): 342 ECL signal | ECL signal [1]: 26 ECL signal | ECL signal [2]: 24 ECL signal | ECL signal [3]: 318 ECL signal | ECL signal [4]: 260 ECL signal
B1: Shc1 (EST clone IMAGE 3907115), in vitro translated, biotin-labelled (protein, UniProt P29353-2 1-473, looked up)
chain: MNKLSGGGGRRTRVEGGQLGGEEWTRHGSFVNKPTRGWLHPNDKVMGPGVSYLVRYMGCVEVLQSMRALDFNTRTQVTREAISLVCEAVPGAKGATRRRKPCSRPLSSILGRSNLKFAGMPITLTVSTSSLNLMAADCKQIIANHHMQSISFASGGDPDTAEYVAYVAKDPVNQRACHILECPEGLAQDVISTIGQAFELRFKQYLRNPPKLVTPHDRMAGFDGSAWDEEEEEPPDHQYYNDFPGKEPPLGGVVDMRLREGAAPGAARPTAPNAQTPSHLGATLPVGQPVGGDPEVRKQMPPPPPCPGRELFDDPSYVNVQNLDKARQAVGGAGPPNPAINGSAPRDLFDMKPFEDALRVPPPPQSVSMAEQLRGEPWFHGKLSRREAEALLQLNGDFLVRESTTTPGQYVLTGLQSGQPKHLLLVDPEGVVRTKDHRFESVSHLISYHMDNHLPIISAGSELCLQQPVERKL
modifications: biotin on some lysine residues (incorporated at random from biotin-Lys-tRNA)

ECL signal of EGFR bound to Grb2 in presence of the peptide [6]: 34100 ECL signal
Binder: LPVPEYINQSVPKRPAGSVC (not fully specified) [un-phosphorylated EGFR 1063-1081 peptide (Peptide, SEQ ID No. 8)]
